{"source": "patent US20120251571", "about": "“RNASE L-MEDIATED CLEAVAGE PRODUCTS AND USES […]” (The Cleveland Clinic Foundation, published 2012)", "key": {"Flag-RIG-I [1]": {"target": "T1, Flag-RIG-I (Homo sapiens, UniProt O95786 O95786:1-925)", "T1 sequence": "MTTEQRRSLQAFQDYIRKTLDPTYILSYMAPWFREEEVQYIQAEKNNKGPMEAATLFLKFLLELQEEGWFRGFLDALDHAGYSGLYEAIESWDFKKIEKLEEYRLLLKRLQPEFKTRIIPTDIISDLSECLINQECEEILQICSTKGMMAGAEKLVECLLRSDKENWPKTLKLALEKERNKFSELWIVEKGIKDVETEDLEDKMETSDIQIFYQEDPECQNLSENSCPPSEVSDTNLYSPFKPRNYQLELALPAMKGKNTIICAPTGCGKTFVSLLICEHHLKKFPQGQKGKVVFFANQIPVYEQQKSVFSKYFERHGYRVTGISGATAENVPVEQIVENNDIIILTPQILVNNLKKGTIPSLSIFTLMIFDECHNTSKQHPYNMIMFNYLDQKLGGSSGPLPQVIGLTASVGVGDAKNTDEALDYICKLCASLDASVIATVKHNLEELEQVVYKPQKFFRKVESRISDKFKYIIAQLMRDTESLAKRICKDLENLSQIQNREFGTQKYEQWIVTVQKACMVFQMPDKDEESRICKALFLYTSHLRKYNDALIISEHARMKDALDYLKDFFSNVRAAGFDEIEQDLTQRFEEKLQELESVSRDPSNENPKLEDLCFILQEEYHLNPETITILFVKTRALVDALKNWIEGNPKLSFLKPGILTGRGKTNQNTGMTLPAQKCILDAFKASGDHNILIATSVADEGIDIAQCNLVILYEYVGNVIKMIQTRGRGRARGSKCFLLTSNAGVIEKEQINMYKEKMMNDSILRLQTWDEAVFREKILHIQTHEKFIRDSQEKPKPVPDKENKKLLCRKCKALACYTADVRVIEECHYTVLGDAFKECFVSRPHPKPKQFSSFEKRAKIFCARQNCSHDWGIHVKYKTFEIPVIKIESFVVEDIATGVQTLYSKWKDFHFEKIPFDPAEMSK", "assay": "pulldown; three clones", "details": "tags: FLAG, from 293T cells"}, "Flag-RIG-I [2]": {"target": "T1, Flag-RIG-I", "assay": "pulldown; six clones isolated; partial clones of the full fragment", "details": "tags: FLAG, from 293T cells"}, "Flag-RIG-I [3]": {"target": "T1, Flag-RIG-I", "assay": "pulldown; one clone", "details": "tags: FLAG, from 293T cells"}, "Flag-RIG-I [4]": {"target": "T1, Flag-RIG-I", "assay": "pulldown; two clones", "details": "tags: FLAG, from 293T cells"}, "Flag-RIG-I [5]": {"target": "T1, Flag-RIG-I", "assay": "pulldown; eight clones", "details": "tags: FLAG, from 293T cells; broken stem-loop with 5' and 3' ss overhangs"}, "[6]": {"target": "T2, N-RIG (RIG-I N-terminal polypeptide) (UniProt O95786 O95786:1-228)", "T2 sequence": "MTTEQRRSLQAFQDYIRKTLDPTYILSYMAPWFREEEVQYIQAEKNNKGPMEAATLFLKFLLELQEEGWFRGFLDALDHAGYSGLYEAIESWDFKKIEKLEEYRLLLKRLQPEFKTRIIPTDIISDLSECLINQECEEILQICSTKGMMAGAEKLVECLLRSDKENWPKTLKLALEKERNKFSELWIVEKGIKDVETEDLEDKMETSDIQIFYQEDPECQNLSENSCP", "assay": "EMSA; N-terminal polypeptide control", "details": "broken stem-loop with 5' and 3' ss overhangs"}, "RIG-I full-length [7]": {"target": "T3, RIG-I full-length (Homo sapiens, UniProt O95786 O95786:1-925)", "T3 sequence": "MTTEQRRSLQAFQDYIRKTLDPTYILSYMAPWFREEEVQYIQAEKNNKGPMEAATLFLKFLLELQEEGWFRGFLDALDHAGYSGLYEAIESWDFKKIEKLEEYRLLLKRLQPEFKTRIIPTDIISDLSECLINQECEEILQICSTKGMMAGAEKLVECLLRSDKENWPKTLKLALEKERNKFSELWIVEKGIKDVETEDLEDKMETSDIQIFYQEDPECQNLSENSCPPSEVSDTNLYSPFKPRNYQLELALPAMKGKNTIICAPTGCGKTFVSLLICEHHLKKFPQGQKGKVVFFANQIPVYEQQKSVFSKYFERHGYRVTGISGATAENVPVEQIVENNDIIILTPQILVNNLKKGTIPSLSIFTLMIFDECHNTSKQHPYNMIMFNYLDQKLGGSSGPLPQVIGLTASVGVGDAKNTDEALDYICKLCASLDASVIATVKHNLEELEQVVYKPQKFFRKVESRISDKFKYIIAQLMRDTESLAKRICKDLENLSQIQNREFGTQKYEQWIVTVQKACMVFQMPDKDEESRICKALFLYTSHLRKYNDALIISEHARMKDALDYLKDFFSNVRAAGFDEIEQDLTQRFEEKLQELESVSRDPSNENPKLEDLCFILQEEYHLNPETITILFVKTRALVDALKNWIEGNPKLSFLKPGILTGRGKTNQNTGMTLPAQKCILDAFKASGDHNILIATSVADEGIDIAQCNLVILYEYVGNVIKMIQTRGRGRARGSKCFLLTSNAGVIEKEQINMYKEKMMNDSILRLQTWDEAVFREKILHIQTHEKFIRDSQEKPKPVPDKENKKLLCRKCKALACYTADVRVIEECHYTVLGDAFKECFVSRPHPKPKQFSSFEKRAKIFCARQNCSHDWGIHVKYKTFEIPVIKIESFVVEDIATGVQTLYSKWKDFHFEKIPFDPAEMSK", "assay": "EMSA; stable complex; 1.5 mM MgCl2, 37 C", "details": "tags: recombinant full-length (Saito et al. 2007, 2008); broken stem-loop with 5' and 3' ss overhangs"}, "RIG-I full-length [8]": {"target": "T3, RIG-I full-length", "assay": "EMSA; stable complex; 10 pmol protein, 6 pmol RNA, 20 mM Tris pH 8.0, 1.5 mM MgCl2, 37 C", "details": "tags: recombinant full-length (Saito et al. 2007, 2008); broken stem-loop with 5' and 3' ss overhangs"}}, "data": [{"binder": "UGUUGCUGCAACGCUGGGCUUUGGUGCUU (ssRNA)", "note": "[svRNA2]", "values": [{"measurement": "binding result", "setting": "Flag-RIG-I [1]", "value": "binds"}]}, {"binder": "UGUCCACCGGCCUCAUCCACCUCCACCAGAACAUU (ssRNA)", "note": "[svRNA1]", "values": [{"measurement": "binding result", "setting": "Flag-RIG-I [2]", "value": "binds"}]}, {"binder": "ACCUUCUCUCCCAGGCGCCACUGGACGACGCAAGACUGCAAU (ssRNA)", "note": "[svRNA5]", "values": [{"measurement": "binding result", "setting": "Flag-RIG-I [3]", "value": "binds"}]}, {"binder": "svRNA14 (ssRNA) RNA: CCCGUGACCCUACAACCCCCCUCGCGAGAGCCGCGUGGGAGACAGCAAGACACACUCCAGUCAAUUCCUGGCUAGGCAACAU", "values": [{"measurement": "binding result", "setting": "Flag-RIG-I [3]", "value": "binds"}]}, {"binder": "svRNA15 (ssRNA) RNA: CCCGUGACCCUACAACCCCCCUCGCGAGAGCCGCGUGGGAGACAGCAAGACACACUCCAGUCAAUUCCUGGCUAGGCAACAU", "values": [{"measurement": "binding result", "setting": "Flag-RIG-I [4]", "value": "binds"}]}, {"binder": "svRNA11 (ssRNA) RNA: ACAGACUGGGCGCUGUUCAGAAUGAAGUCACCCUGACGCACCCAAUCACCAAAUACAUCAUGACAUGCAUGUCGGCCGACCUGGAGAUCGUCACGAGCACCUGGGUGCUCGUUGGCGGCGUCCUGGCUGCUCUGGCCGCGUAUUGCCUGUCAACAGGCUGCGUGGUCAUAGUGGGCAGGAUU", "values": [{"measurement": "binding result", "setting": "Flag-RIG-I [3]", "value": "binds"}]}, {"binder": "svRNA10 (ssRNA) RNA: ACCUGGUCACGAGGCACGCCGAUGUCAUUCCCGUGCGCCGGCGAGGUGAUAGCAGGGGUAGCCUGCUUUCGCCCCGGCCCAUUUCCUACUUGAAAGGCUCCUCGGGGGGUCCGCUGUUGUGCCCCGCGGGACACGCCGUGGGCCUAUUCAGGGCCGCGGUGUGCACCCGUGGAGUGGCU", "values": [{"measurement": "binding result", "setting": "Flag-RIG-I [3]", "value": "binds"}]}, {"binder": "svRNA12 (ssRNA) RNA: UGCACCGCCAACCAUGACUCCCCUGACGCCGAGCUCAUAGAGGCUAACCUCCUGUGGAGGCAGGAGAUGGGCGGCAACAUCACCAGGGUUGAGUCAGAGAACAAAGUGGUGAUUCUGGACUCCUUCGAUCCGCUUGUGGCAGAGGAGGAUGAGCGGGAGGUCUCCGUACCUGCAGAAAUUCUGCGGAAGUCUCGGAGAUUCGCCCGGGCCCUGCCCGUCUGGGCGCGGCCGGACUACAACCCCCCGCUA", "values": [{"measurement": "binding result", "setting": "Flag-RIG-I [4]", "value": "binds"}]}, {"binder": "svRNA8 (ssRNA) RNA: GCUUGGGCCAGCCGACGGAAUGGUCUCCAAGGGGUGGAGGUUGCUGGCGCCCAUCACGGCGUACGCCCAGCAGACGAGAGGCCUCCUAGGGUGUAUA", "values": [{"measurement": "binding result", "setting": "Flag-RIG-I [3]", "value": "binds"}]}, {"binder": "svRNA9 (ssRNA) RNA: GCUUGGGCCAGCCGACGGAAUGGUCUCCAAGGGGUGGAGGUUGCUGGCGCCCAUCACGGCGUACGCCCAGCAGACGAGAGGCCUCCUAGGGUGUAUA", "values": [{"measurement": "binding result", "setting": "Flag-RIG-I [3]", "value": "binds"}]}, {"binder": "svRNA3 (5'-OH/3'-p) (ssRNA, 5'-OH, 3'-phosphate) RNA: AAGAACAAAGCUCAAACUCACUCCAAUAGCGGCCGCUGGCCGGCUGGACUUGUCCGGUUGGUUCACGGCUGGCUACAGCGGGGGAGACAU", "values": [{"measurement": "binding result", "setting": "Flag-RIG-I [5]", "value": "binds"}, {"measurement": "binding result", "setting": "[6]", "value": "no binding"}, {"measurement": "binding result", "setting": "RIG-I full-length [7]", "value": "binds"}]}, {"binder": "svRNA6 (ssRNA) RNA: ACGGGUCAUCGCAUGGCAUGGGAUAUGAUGAUGAACUGGUCCCCUACGGCAGCGUUGGUGGUAGCUCAGCUGCUCCGGAUCCCACAAGCCAUCAUGGACAUGAUCGCUGGUGCUCACUGGGGAGUCCUGGCGGGCAUAGCGU", "values": [{"measurement": "binding result", "setting": "Flag-RIG-I [4]", "value": "binds"}]}, {"binder": "svRNA7 (ssRNA) RNA: GGUCUCCUUACACCAGGCGCCAAGCAGAACAUCCAACUGAUCAACACCAACGGCAGUUGGCACAUCAAUAGCACGGCCUUGAAUUGCAAUGAAAGCCUUAACACCGGCUGGUUAGCAGGGCUCUUCUAUCAACACAAAUUCAACUCUUCAGGCUGUCCUGAGAGGUUGGCCAGCUGCCGACGCCUUACCGAUUUUGCCCAGGGCUGGGGUCCUA", "values": [{"measurement": "binding result", "setting": "Flag-RIG-I [4]", "value": "binds"}]}, {"binder": "svRNA13 (ssRNA) RNA: CCACCUCCACGGUCCCCUCCUGUGCCUCCGCCUCGGAAAAAGCGUACGGUGGUCCUCACCGAAUCAACCCUA", "values": [{"measurement": "binding result", "setting": "Flag-RIG-I [3]", "value": "binds"}]}, {"binder": "svRNA3 (5'-p3/3'-OH) (ssRNA, 5'-triphosphate, 3'-OH) RNA: AAGAACAAAGCUCAAACUCACUCCAAUAGCGGCCGCUGGCCGGCUGGACUUGUCCGGUUGGUUCACGGCUGGCUACAGCGGGGGAGACAUUUA", "values": [{"measurement": "binding result", "setting": "[6]", "value": "no binding"}, {"measurement": "binding result", "setting": "RIG-I full-length [8]", "value": "binds"}]}]}
